Assay results published in patent publication US20220062371A1 (DEBIOPHARM RESEARCH AND MANUFACTURING S A, published 2022).
Non-standard residues stand in square brackets, D forms with d. Groups on a side chain read outwards from the residue. Primed or numbered codes have the meaning given here. No end group written: not given here. *: point of attachment. OCPT = camptothecin (CPT) attached as an ester, CC[C@@]1(O*)C(=O)OCc2c1cc1n(c2=O)Cc2cc3ccccc3nc2-1; Propanoyl(3-maleimido) = O=C1C=CC(=O)N1CCC(=O)*; PEG4′ = tetraethylene glycol; Dab = NCC[C@H](N)C(=O)O; CO′ = not defined here; Dap = NC[C@H](N)C(=O)O; CPT = Camptothecin; AF = auristatin F; Sar = CNCC(=O)O

B1: Compound 19, AF-Cit-Lys(PEG4-Mal-Cys-Ac)-Phe-OH (peptide)
peptide: XKF
modifications: X at position 1 is citrulline (Cit); N-terminus acylated with auristatin F (AF); Lys 2 side chain carries PEG4-Mal-Cys-Ac
B2: Compound 23, DM1-Mcc-Cit-Lys(PEG5-Ma-Cys-Ac)-Tyr-OH (peptide)
peptide: XKY
modifications: X at position 1 is citrulline (Cit); DM1-Mcc on the N-terminus; Lys 2 side chain carries PEG5-Ma-Cys-Ac
B3: Compound 1, AF-Arg-Lys(PEG4-Mal-Cys-Ac)-Phe-OH (peptide)
peptide: RKF
modifications: N-terminus acylated with auristatin F (AF); Lys 2 side chain carries PEG4-Mal-Cys-Ac
B4: Compound 3, AF-Arg-Phe-Lys(PEG4-Mal-Cys-Ac)-OH (peptide)
peptide: RFK
modifications: N-terminus acylated with auristatin F (AF); Lys 3 side chain carries PEG4-Mal-Cys-Ac

Target: T1, Recombinant human Cathepsin B (human, UniProt P07858 80-333)
Experiment: cell-based or functional assay

Point of comparison: R[PEG4′]FRE([Sar-OCPT])F-OH [Compound 8, Arg-PEG4-Phe-Arg-Glu(Sar-OCPT)-Phe-OH], “Ratio (T1/2 Compound/T1/2 Reference)” value 0.19. Against it:
- R[PEG4′]FR[Dap](CO‑CPT)F-OH [Compound 9, Arg-PEG4-Phe-Arg-Dap(CO-CPT)-Phe-OH] — higher, 0.63
- R[PEG4′]FR[Dab](CO‑CPT)F-OH [Compound 10, Arg-PEG4-Phe-Arg-Dab(CO-CPT)-Phe-OH] — lower, 0.1
- R[PEG4′]FRS([CO′-CPT])F-OH [Compound 11, Arg-PEG4-Phe-Arg-Ser(CO-CPT)-Phe-OH] — higher, 0.2
- FKKF (Ac-Cys-Mal-PEG4 at the N-terminus; Lys(Mal-DM1)) [Compound 12, Ac-Cys-Mal-PEG4-Phe-Lys-Lys(Mal-DM1)-Phe-OH] — lower, 0.14
- {Ac-Cys-Propanoyl(3-maleimido)-PEG4′}-FKK(AF)F-OH [Compound 13, Ac-Cys-Mal-PEG4-Phe-Lys-Lys(AF)-Phe-OH] — lower, 0.15
- FXKY (Ac-Cys-Ma-PEG5 at the N-terminus; citrulline (Cit); Lys(Mcc-DM1)) [Compound 27, Ac-Cys-Ma-PEG5-Phe-Cit-Lys(Mcc-DM1)-Tyr-OH] — lower, 0.005
- FKKFFK (Ac-Cys-Mal-PEG4 at the N-terminus; Lys(Mal-DM1)) [Compound 28, Ac-Cys-Mal-PEG4-Phe-Lys-Lys(Mal-DM1)-Phe-Phe-Lys-OH] — lower, 0.03

Target: T1, Recombinant human Cathepsin B
Experiment: cell-based or functional assay
Remark: another data set of the same source

Point of comparison: FKKF (DM1-Mal on the N-terminus of Phe; Lys(PEG4-Mal-Cys-Ac)) [Compound 5, DM1-Mal-Phe-Lys-Lys(PEG4-Mal-Cys-Ac)-Phe-OH], “Ratio (T1/2 Compound/T1/2 Reference)” value 0.05. Against it:
- FXKF (DM1-Mal on the N-terminus of Phe; citrulline (Cit); Lys(PEG4-Mal-Cys-Ac)) [Compound 6, DM1-Mal-Phe-Cit-Lys(PEG4-Mal-Cys-Ac)-Phe-OH] — lower, 0.02
- FXFK (DM1-Mal on the N-terminus of Phe; citrulline (Cit); Lys(PEG4-Mal-Cys-Ac)) [Compound 7, DM1-Mal-Phe-Cit-Phe-Lys(PEG4-Mal-Cys-Ac)-OH] — higher, 0.09
- B1 — higher, 0.09
- FXKY (DM1-Mcc on the N-terminus of Phe; citrulline (Cit); Lys(PEG5-Ma-Cys-Ac)) [Compound 22, DM1-Mcc-Phe-Cit-Lys(PEG5-Ma-Cys-Ac)-Tyr-OH] — lower, 0.005
- B2 — lower, 4e-05
- B3 — higher, 0.12
- B4 — higher, 0.11

Target: T1, Recombinant human Cathepsin B
Experiment: cell-based or functional assay
Remark: another data set of the same source

Point of comparison: FRKRKF (Ac-Cys-Mal-PEG4 at the N-terminus; Lys(Mal-DM1); Lys(AF)) [Compound 30, Ac-Cys-Mal-PEG4-Phe-Arg-Lys(Mal-DM1)-Arg-Lys(AF)-Phe-OH], “Ratio (T1/2 Compound/T1/2 Reference)” value 0.07. Against it:
- FKKFFKKF (Ac-Cys-Mal-PEG4 at the N-terminus; two Lys(Mal-DM1)) [Compound 29, Ac-Cys-Mal-PEG4-[Phe-Lys-Lys(Mal-DM1)-Phe]2-OH] — higher, 0.23

Target: T1, Recombinant human Cathepsin B
Experiment: cell-based or functional assay
Remark: another data set of the same source

With XKFKF (AF at the N-terminus; citrulline (Cit); Lys(Mal-DM1); Lys(PEG4-Mal-Cys-Ac)) [Compound 31, AF-Cit-Lys(Mal-DM1)-Phe-Lys(PEG4-Mal-Cys-Ac)-Phe-OH] the “Ratio (T1/2 Compound/T1/2 Reference)” value was 0.08.
